Legend:
His-SAMD9 = His-SAMD9 (Homo sapiens, UniProt Q5K651 1-1589); assay: EMSA
native gel or EMSA = target: the molecule itself; assay: native gel or EMSA

Binder	binding result (His-SAMD9)	binding result (native gel or EMSA)
20-bp dsDNA (dsDNA) DNA 1: GATAAGGACTCGTATGTACC DNA 2: GGTACATACGAGTCCTTATC	no binding	
15-bp dsDNA (dsDNA) DNA 1: GATAAGGACTCGTAT DNA 2: ATACGAGTCCTTATC	no binding	
His-SAMD9, recombinant full-length human SAMD9 (natural protein) MAKQLNLPENTDDWTKEDVNQWLESHKIDQKHREILTEQDVNGAVLKWLKKEHLVDMGITHGPAIQIEELFKELRKTAIEDSIQTSKMGKPSKNAPKDQTVSQKERRETSKQKQKGKENPDMANPSAMSTTAKGSKSLKVELIEDKIDYTKERQPSIDLTCVSYPFDEFSNPYRYKLDFSLQPETGPGNLIDPIHEFKAFTNTATATEEDVKMKFSNEVFRFASACMNSRTNGTIHFGVKDKPHGKIVGIKVTNDTKEALINHFNLMINKYFEDHQVQQAKKCIREPRFVEVLLPNSTLSDRFVIEVDIIPQFSECQYDYFQIKMQNYNNKIWEQSKKFSLFVRDGTSSKDITKNKVDFRAFKADFKTLAESRKAAEEKFRAKTNKKEREGPKLVKLLTGNQDLLDNSYYEQYILVTNKCHPDQTKHLDFLKEIKWFAVLEFDPESNINGVVKAYKESRVANLHFPSVYVEQKTTPNETISTLNLYHQPSWIFCNGRLDLDSEKYKPFDPSSWQRERASDVRKLISFLTHEDIMPRGKFLVVFLLLSSVDDPRDPLIETFCAFYQDLKGMENILCICVHPHIFQGWKDLLEARLIKHQDEISSQCISALSLEEINGTILKLKSVTQSSKRLLPSIGLSTVLLKKEEDIMTALEIICENECEGTLLEKDKNKFLEFKASKEEDFYRGGKVSWWNFYFSSESYSSPFVKRDKYERLEAMIQNCADSSKPTSTKIIHLYHHPGCGGTTLAMHILWELRKKFRCAVLKNKTVDFSEIGEQVTSLITYGAMNRQEYVPVLLLVDDFEEQDNVYLLQYSIQTAIAKKYIRYEKPLVIILNCMRSQNPEKSARIPDSIAVIQQLSPKEQRAFELKLKEIKEQHKNFEDFYSFMIMKTNFNKEYIENVVRNILKGQNIFTKEAKLFSFLALLNSYVPDTTISLSQCEKFLGIGNKKAFWGTEKFEDKMGTYSTILIKTEVIECGNYCGVRIIHSLIAEFSLEELKKSYHLNKSQIMLDMLTENLFFDTGMGKSKFLQDMHTLLLTRHRDEHEGETGNWFSPFIEALHKDEGNEAVEAVLLESIHRFNPNAFICQALARHFYIKKKDFGNALNWAKQAKIIEPDNSYISDTLGQVYKSKIRWWIEENGGNGNISVDDLIALLDLAEHASSAFKESQQQSEDREYEVKERLYPKSKRRYDTYNIAGYQGEIEVGLYTIQILQLIPFFDNKNELSKRYMVNFVSGSSDIPGDPNNEYKLALKNYIPYLTKLKFSLKKSFDFFDEYFVLLKPRNNIKQNEEAKTRRKVAGYFKKYVDIFCLLEESQNNTGLGSKFSEPLQVERCRRNLVALKADKFSGLLEYLIKSQEDAISTMKCIVNEYTFLLEQCTVKIQSKEKLNFILANIILSCIQPTSRLVKPVEKLKDQLREVLQPIGLTYQFSEPYFLASLLFWPENQQLDQHSEQMKEYAQALKNSFKGQYKHMHRTKQPIAYFFLGKGKRLERLVHKGKIDQCFKKTPDINSLWQSGDVWKEEKVQELLLRLQGRAENNCLYIEYGINEKITIPITPAFLGQLRSGRSIEKVSFYLGFSIGGPLAYDIEIV		binds
80-nt ssDNA (ssDNA) DNA: CGCCTACATACCTCGCTCTGCTAATCCTGTTACCAGTGGCTGCTGCCAGTGGCGATAAGTCGTGTCTTACCGGGTTGGAC	no binding	

Source: PMC12015307 (Nature Communications, 2025)
